Results: PMC8686763, “Pre-Steady-State Kinetics of the SARS-CoV-2 Main Protease as a Powerful Tool for Antiviral Drug Discovery” (Frontiers in Pharmacology, 2021)

Target: FRET substrate Dabcyl-[…]-E(Edans)-NH2 (SARS-CoV-2)
Assay: stopped-flow fluorescence kinetics (FRET signal of the Edans/Dabcyl peptide)

## SARS-CoV-2 main protease, catalytically inactive mutant C145A (enzyme)
  Ka: 1.6e+06 M⁻¹
  Kd: 0.6 µM
  koff: 0.18 s⁻¹
  kon: 280000 M⁻¹ s⁻¹
